In article PMC11187563, “The importance of tyrosines in multimers of cyclic RGD nonapeptides: towards αvβ6-integrin targeted radiotherapeutics” (RSC Medicinal Chemistry, 2024):
Like-named read-outs stand apart in the source and are kept apart here.

Key:
[1] = Ex vivo biodistribution of 177Lu-labeled peptide tetramers in H2009 xenografted SCID mice; details: CB17 SCID, mouse, iv, total radioactivity; for tissue uptake at 1.5 h / tissue to tissue ratio at 1.5 h: 90 min p.i.; for tissue uptake at 24 h / tissue to tissue ratio at 24 h: 154 pmol, 24 h p.i.
In short: (§1)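 SCID mice carried subcutaneous H2009 xenografts on the right shoulder. 177Lu-labeled conjugates were injected i.v., and ex vivo organ distribution was measured at two time points post-injection.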

[2] = system: αvβ6-integrin expressing human lung adenocarcinoma cell line H2009 xenografts; assay: as above; details: H2009 bearing SCID mice
In short: as §1

[3] = SPECT imaging of H2009 tumor xenograft, ROI-based tumor uptake; type: in vivo; details: SCID, mouse, iv, total radioactivity, i.v. injection of 36.5 MBq, scan time 1 h
Procedure: Fig. 6 Single-photon emission computed tomography (SPECT) of a SCID mouse bearing a human H2009 tumor xenograft on the right shoulder, recorded at 4 time points (1 h, 3 h, 24 h, and 72 h) after i.v. injection of 36.5 MBq of ^177Lu-Y8, scan time 1 h. Tumor position is indicated by white dotted circle. Adjacent figures denote ROI-based tumor uptakes in % IA mL^−1. TEXT PRINTED IN THE PICTURE: no label printed: % IA / mL: 2.8 (1 h p.i.); % IA / mL: 2.7 (3 h p.i.); % IA / mL: 2.4 (24 h p.i.); % IA / mL: 2.0 (72 h p.i.) DOUBTS OF THE COPYIST ABOUT THIS PICTURE: The picture prints no substance label. The unit % IA / mL is printed only at the colour scale bar, and assigning it to the numbers beside the dotted circles is assumed.
SPECT imaging was performed for 60 min per animal on a nanoScan SPECT/CT (Mediso, Budapest, Hungary) at different timepoints (1 h, 3 h, 24 h, 72 h) after intravenous injection of approx. 40 MBq [^177Lu]Lu-Y8 per animal (n = 2). Reconstruction, image analysis and quantification of SPECT data were performed using Nucline and Interview fusion software (both Mediso).

Question: Which results are given for `CC(C)C[C@@H]1NC(=O)[C@H](CC(=O)O)NC(=O)CNC(=O)[C@H](CCCNC(=N)N)NC(=O)[C@H](Cc2ccc(O)cc2)NC(=O)[C@H](CCCCNC(=O)CCc2cn(CCCNC(=O)CCP(=O)(O)CN3CCN(CP(=O)(O)CCC(=O)NCCCn4cc(CCC(=O)NCCCC[C@H]5C(=O)N[C@@H](Cc6ccc(O)cc6)C(=O)N[C@@H](CCCNC(=N)N)C(=O)NCC(=O)N[C@@H](CC(=O)O)C(=O)N[C@@H](CC(C)C)C(=O)N[C@@H](C)C(=O)N[C@@H](Cc6ccc(O)cc6)C(=O)N6CCC[C@@H]6C(=O)N5C)nn4)CCN(CP(=O)(O)CCC(=O)NCCCn4cc(CCC(=O)NCCCC[C@H]5C(=O)N[C@@H](Cc6ccc(O)cc6)C(=O)N[C@@H](CCCNC(=N)N)C(=O)NCC(=O)N[C@@H](CC(=O)O)C(=O)N[C@@H](CC(C)C)C(=O)N[C@@H](C)C(=O)N[C@@H](Cc6ccc(O)cc6)C(=O)N6CCC[C@@H]6C(=O)N5C)nn4)CCN(CP(=O)(O)CCC(=O)NCCCn4cc(CCC(=O)NCCCC[C@H]5C(=O)N[C@@H](Cc6ccc(O)cc6)C(=O)N[C@@H](CCCNC(=N)N)C(=O)NCC(=O)N[C@@H](CC(=O)O)C(=O)N[C@@H](CC(C)C)C(=O)N[C@@H](C)C(=O)N[C@@H](Cc6ccc(O)cc6)C(=O)N6CCC[C@@H]6C(=O)N5C)nn4)CC3)nn2)N(C)C(=O)[C@H]2CCCN2C(=O)[C@H](Cc2ccc(O)cc2)NC(=O)[C@H](C)NC1=O` [Compound 177Lu-Y8, metal not drawn]?
Answer: tissue uptake at 1.5 h ([1]; spleen, + 50 nmol non-labeled compound 10 min prior to activity, n = 2, read-out: Spleen %IA/g, + 50 nmol cold): 4.99 %ID/g; tissue uptake at 1.5 h ([1]; stomach (empty), 124 pmol, H2009 bearing SCID mice, read-out: Stomach (empty) %IA/g): 8.26 %ID/g; tissue uptake at 24 h ([1]; stomach (empty), H2009 bearing SCID mice, read-out: Stomach (empty) %IA/g): 3.84 %ID/g; tissue uptake at 72 h ([1]; stomach (empty), 199 pmol, 3 d p.i., H2009 bearing SCID mice, read-out: Stomach (empty) %IA/g): 2.65 %ID/g; tissue uptake at 1.5 h ([1]; stomach (empty), + 50 nmol non-labeled compound 10 min prior to activity, n = 2, read-out: Stomach (empty) %IA/g, + 50 nmol cold): 1.19 %ID/g; tissue uptake at 24 h ([1]; tumor (H2009 xenograft), H2009 bearing SCID mice, read-out: Tumor H2009 %IA/g): 2.42 %ID/g; tissue uptake at 1.5 h ([1]; tumor (H2009 xenograft), + 50 nmol non-labeled compound 10 min prior to activity, n = 2, read-out: Tumor H2009 %IA/g, + 50 nmol cold): 1.71 %ID/g; tissue to tissue ratio at 72 h ([1]; tumor / adrenals, 199 pmol, 3 d p.i., H2009 bearing SCID mice, read-out: tumor/organ ratio, Adrenals): 4.5; tissue to tissue ratio at 24 h ([1]; tumor / blood, H2009 bearing SCID mice, read-out: tumor/organ ratio, Blood): 59.6; tissue to tissue ratio at 72 h ([1]; tumor / bone, 199 pmol, 3 d p.i., H2009 bearing SCID mice, read-out: tumor/organ ratio, Bone): 3.4; tissue to tissue ratio at 24 h ([1]; tumor / heart (myocard), H2009 bearing SCID mice, read-out: tumor/organ ratio, Heart (myocard)): 15.2; tissue to tissue ratio at 72 h ([1]; tumor / large intestine (empty), 199 pmol, 3 d p.i., H2009 bearing SCID mice, read-out: tumor/organ ratio, Large intestine (empty)): 3.6; tissue to tissue ratio at 24 h ([1]; tumor / liver, H2009 bearing SCID mice, read-out: tumor/organ ratio, Liver): 2.7; tissue to tissue ratio at 24 h ([1]; tumor / lung, H2009 bearing SCID mice, read-out: tumor/organ ratio, Lung): 2.1; tissue to tissue ratio at 72 h ([1]; tumor / muscle, 199 pmol, 3 d p.i., H2009 bearing SCID mice, read-out: tumor/organ ratio, Muscle): 8.4; tissue to tissue ratio at 72 h ([1]; tumor / small intestine (empty), 199 pmol, 3 d p.i., H2009 bearing SCID mice, read-out: tumor/organ ratio, Small intestine (empty)): 11.4; tissue to tissue ratio at 24 h ([1]; tumor / spleen, H2009 bearing SCID mice, read-out: tumor/organ ratio, Spleen): 1.4; tissue to tissue ratio at 72 h ([1]; tumor / stomach (empty), 199 pmol, 3 d p.i., H2009 bearing SCID mice, read-out: tumor/organ ratio, Stomach (empty)): 0.8; tissue to tissue ratio at 1.5 h ([1]; tumor/adrenals, 124 pmol, H2009 bearing SCID mice, read-out: tumor/organ ratio, Adrenals): 8.9; tissue to tissue ratio at 24 h ([1]; tumor/adrenals, H2009 bearing SCID mice, read-out: tumor/organ ratio, Adrenals): 10.2; tissue to tissue ratio at 1.5 h ([1]; tumor/blood, 124 pmol, H2009 bearing SCID mice, read-out: tumor/organ ratio, Blood): 2.4; tissue to tissue ratio at 72 h ([1]; tumor/blood, 199 pmol, 3 d p.i., H2009 bearing SCID mice, read-out: tumor/organ ratio, Blood): 67; tissue to tissue ratio at 1.5 h ([1]; tumor/bone, 124 pmol, H2009 bearing SCID mice, read-out: tumor/organ ratio, Bone): 1.8; tissue to tissue ratio at 24 h ([1]; tumor/bone, H2009 bearing SCID mice, read-out: tumor/organ ratio, Bone): 3.6; tissue to tissue ratio at 1.5 h ([1]; tumor/heart (myocard), 124 pmol, H2009 bearing SCID mice, read-out: tumor/organ ratio, Heart (myocard)): 5.9; tissue to tissue ratio at 72 h ([1]; tumor/heart (myocard), 199 pmol, 3 d p.i., H2009 bearing SCID mice, read-out: tumor/organ ratio, Heart (myocard)): 12.2; tissue to tissue ratio at 1.5 h ([1]; tumor/large intestine (empty), 124 pmol, H2009 bearing SCID mice, read-out: tumor/organ ratio, Large intestine (empty)): 1.8; tissue to tissue ratio at 24 h ([1]; tumor/large intestine (empty), H2009 bearing SCID mice, read-out: tumor/organ ratio, Large intestine (empty)): 1.8; tissue to tissue ratio at 1.5 h ([1]; tumor/liver, 124 pmol, H2009 bearing SCID mice, read-out: tumor/organ ratio, Liver): 5.1; tissue to tissue ratio at 72 h ([1]; tumor/liver, 199 pmol, 3 d p.i., H2009 bearing SCID mice, read-out: tumor/organ ratio, Liver): 2.4; tissue to tissue ratio at 1.5 h ([1]; tumor/lung, 124 pmol, H2009 bearing SCID mice, read-out: tumor/organ ratio, Lung): 1; tissue to tissue ratio at 72 h ([1]; tumor/lung, 199 pmol, 3 d p.i., H2009 bearing SCID mice, read-out: tumor/organ ratio, Lung): 2.2; tissue to tissue ratio at 1.5 h ([1]; tumor/muscle, 124 pmol, H2009 bearing SCID mice, read-out: tumor/organ ratio, Muscle): 7.4; tissue to tissue ratio at 24 h ([1]; tumor/muscle, H2009 bearing SCID mice, read-out: tumor/organ ratio, Muscle): 9.5; tissue to tissue ratio at 1.5 h ([1]; tumor/pancreas, 124 pmol, H2009 bearing SCID mice, read-out: tumor/organ ratio, Pancreas): 14.3; tissue to tissue ratio at 24 h ([1]; tumor/pancreas, H2009 bearing SCID mice, read-out: tumor/organ ratio, Pancreas): 18.4; tissue to tissue ratio at 72 h ([1]; tumor/pancreas, 199 pmol, 3 d p.i., H2009 bearing SCID mice, read-out: tumor/organ ratio, Pancreas): 14.9; tissue to tissue ratio at 1.5 h ([1]; tumor/small intestine (empty), 124 pmol, H2009 bearing SCID mice, read-out: tumor/organ ratio, Small intestine (empty)): 2.1; tissue to tissue ratio at 24 h ([1]; tumor/small intestine (empty), H2009 bearing SCID mice, read-out: tumor/organ ratio, Small intestine (empty)): 2.5; tissue to tissue ratio at 1.5 h ([1]; tumor/spleen, 124 pmol, H2009 bearing SCID mice, read-out: tumor/organ ratio, Spleen): 0.7; tissue to tissue ratio at 72 h ([1]; tumor/spleen, 199 pmol, 3 d p.i., H2009 bearing SCID mice, read-out: tumor/organ ratio, Spleen): 1; tissue to tissue ratio at 1.5 h ([1]; tumor/stomach (empty), 124 pmol, H2009 bearing SCID mice, read-out: tumor/organ ratio, Stomach (empty)): 0.7; tissue to tissue ratio at 24 h ([1]; tumor/stomach (empty), H2009 bearing SCID mice, read-out: tumor/organ ratio, Stomach (empty)): 0.7; tumor/organ ratio, Kidneys ([2]; 90 min p.i.): 0.0; tumor/organ ratio, Kidneys ([2]; 24 h p.i.): 0.0; tumor/organ ratio, Kidneys ([2]; 3 d p.i.): 0.0; tissue uptake per volume at 1 h ([3]; 1 h p.i.): 2.8 %ID/mL; tissue uptake per volume at 3 h ([3]; 3 h p.i.): 2.7 %ID/mL; tissue uptake per volume at 24 h ([3]; 24 h p.i.): 2.4 %ID/mL; tissue uptake per volume at 72 h ([3]; 72 h p.i.): 2 %ID/mL
